In publication PMC6003988, “VRK1 and AURKB form a complex that cross inhibit their kinase activity and the phosphorylation of histone H3 in the progression of mitosis” (Cellular and Molecular Life Sciences: CMLS, 2018):

Target: T1, V5–AURKB, expressed in HEK293T cells (UniProt Q96GD4 1-344)
T1 construct: Aurora kinase B (AURKB), wild type; plasmid pDEST3.1_nV5-AurkB provided by Malumbres [65]; also called Aurora B; Aurora kinase B; source: HEK293T, transfected, in lysate
Assay: co-IP; immunoprecipitation of V5-AURKB from extracts of HEK293T cells co-transfected with GST-VRK1 or HA-VRK1, WT or kinase-dead; VRK1 detected by immunoblot, quantified
Details: partners not purified

T1 sequence (Q96GD4 whole entry): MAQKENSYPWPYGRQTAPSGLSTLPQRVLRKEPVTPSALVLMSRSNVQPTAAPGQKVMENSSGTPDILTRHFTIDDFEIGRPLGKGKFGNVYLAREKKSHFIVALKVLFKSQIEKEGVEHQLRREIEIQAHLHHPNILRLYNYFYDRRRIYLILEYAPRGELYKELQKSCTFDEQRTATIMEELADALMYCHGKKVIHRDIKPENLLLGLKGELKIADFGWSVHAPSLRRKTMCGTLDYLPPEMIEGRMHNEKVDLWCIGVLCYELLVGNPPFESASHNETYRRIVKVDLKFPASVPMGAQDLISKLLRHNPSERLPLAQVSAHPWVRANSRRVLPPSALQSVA

B1: HA–VRK1–K179E, kinase-dead, expressed in HEK293T cells (enzyme, human, UniProt Q99986 1-396, looked up)
chain: MPRVKAAQAGRQSSAKRHLAEQFAVGEIITDMAKKEWKVGLPIGQGGFGCIYLADMNSSESVGSDAPCVVKVEPSDNGPLFTELKFYQRAAKPEQIQKWIRTRKLKYLGVPKYWGSGLHDKNGKSYRFMIMDRFGSDLQKIYEANAKRFSRKTVLQLSLRILDILEYIHEHEYVHGDIEASNLLLNYKNPDQVYLVDYGLAYRYCPEGVHKEYKEDPKRCHDGTIEFTSIDAHNGVAPSRRGDLEILGYCMIQWLTGHLPWEDNLKDPKYVRDSKIRYRENIASLMDKCFPEKNKPGEIAKYMETVKLLDYTEKPLYENLRDILLQGLKAIGSKDDGKLDLSVVENGGLKAKTITKKRKKEIEESKEPGVEDTEWSNTQTEEAIQTRSRTRKRVQK
notes: Vaccinia-related kinase 1 (VRK1), kinase-dead mutant K179E; plasmid pCEFL-HA-VRK1-K179E; also called HA–VRK1–KD; pCEFL–HA–VRK1–K179E; source: HEK293T, transfected, in lysate
  fold binding against active VRK1: ~3 fold

B2: GST–VRK1 (K179E), kinase inactive, expressed in HEK293T cells (enzyme, human, UniProt Q99986 1-396, looked up)
chain: MPRVKAAQAGRQSSAKRHLAEQFAVGEIITDMAKKEWKVGLPIGQGGFGCIYLADMNSSESVGSDAPCVVKVEPSDNGPLFTELKFYQRAAKPEQIQKWIRTRKLKYLGVPKYWGSGLHDKNGKSYRFMIMDRFGSDLQKIYEANAKRFSRKTVLQLSLRILDILEYIHEHEYVHGDIEASNLLLNYKNPDQVYLVDYGLAYRYCPEGVHKEYKEDPKRCHDGTIEFTSIDAHNGVAPSRRGDLEILGYCMIQWLTGHLPWEDNLKDPKYVRDSKIRYRENIASLMDKCFPEKNKPGEIAKYMETVKLLDYTEKPLYENLRDILLQGLKAIGSKDDGKLDLSVVENGGLKAKTITKKRKKEIEESKEPGVEDTEWSNTQTEEAIQTRSRTRKRVQK
notes: Vaccinia-related kinase 1 (VRK1), kinase-dead mutant K179E; also called GST-VRK1 KD; kinase-dead VRK1 (K179E); source: HEK293T, transfected, in lysate
  fold binding against active VRK1: ~3 fold
